Test results: patent US20130143798A1 (Novo Nordisk, published 2013)
Numbered stars: 1 amine (or outer) side, 2 acyl side, 3 side chain; on linkers, the order of the positions; unused ones are H or OH. Square brackets hold non-standard residues; d marks the D form. Side chains are listed from the residue outwards. Ends that are not written are not given here. * marks the point of attachment. C18 diacid = O=C(O)CCCCCCCCCCCCCCCCC(=O)*; γGlu = O=C(O)[C@H](CCC(=O)[*:2])N[*:1]; AEEA = NCCOCCOCC(=O)O

molecular target: glucagon receptor (UniProt P47871 26-477, limits assumed); experiment: cell-based or functional assay
Sequence (P47871 26-477 limits assumed): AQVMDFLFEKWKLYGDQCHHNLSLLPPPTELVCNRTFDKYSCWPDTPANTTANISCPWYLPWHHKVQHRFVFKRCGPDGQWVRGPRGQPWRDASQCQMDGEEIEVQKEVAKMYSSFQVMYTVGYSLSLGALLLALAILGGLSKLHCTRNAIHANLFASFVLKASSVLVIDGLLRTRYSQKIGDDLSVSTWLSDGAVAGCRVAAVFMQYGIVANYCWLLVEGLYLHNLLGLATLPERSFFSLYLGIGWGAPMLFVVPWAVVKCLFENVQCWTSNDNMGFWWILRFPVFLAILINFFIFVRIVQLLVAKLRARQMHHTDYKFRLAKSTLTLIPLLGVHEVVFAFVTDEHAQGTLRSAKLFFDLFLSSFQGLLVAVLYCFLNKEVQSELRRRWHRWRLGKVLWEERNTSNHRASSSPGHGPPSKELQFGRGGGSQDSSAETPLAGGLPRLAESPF

Row | Binder | Assay (I) Glucagon [EC50] [nM]
1 | HSQGTFTSDYSKYLDERRAQDFVK([AEEA-AEEA-γGlu-C18 diacid])WLLAT-NH2 (N-terminus assumed; SMILES CC(C)C[C@H](NC(=O)[C@H](CC(C)C)NC(=O)[C@H](Cc1c[nH]c2ccccc12)NC(=O)[C@H](CCCCNC(=O)COCCOCCNC(=O)COCCOCCNC(=O)CC[C@H](NC(=O)CCCCCCCCCCCCCCCCC(=O)O)C(=O)O)NC(=O)[C@@H](NC(=O)[C@H](Cc1ccccc1)NC(=O)[C@H](CC(=O)O)NC(=O)[C@H](CCC(N)=O)NC(=O)[C@H](C)NC(=O)[C@H](CCCNC(=N)N)NC(=O)[C@H](CCCNC(=N)N)NC(=O)[C@H](CCC(=O)O)NC(=O)[C@H](CC(=O)O)NC(=O)[C@H](CC(C)C)NC(=O)[C@H](Cc1ccc(O)cc1)NC(=O)[C@H](CCCCN)NC(=O)[C@H](CO)NC(=O)[C@H](Cc1ccc(O)cc1)NC(=O)[C@H](CC(=O)O)NC(=O)[C@H](CO)NC(=O)[C@@H](NC(=O)[C@H](Cc1ccccc1)NC(=O)[C@@H](NC(=O)CNC(=O)[C@H](CCC(N)=O)NC(=O)[C@H](CO)NC(=O)[C@@H](N)Cc1c[nH]cn1)[C@@H](C)O)[C@@H](C)O)C(C)C)C(=O)N[C@@H](C)C(=O)N[C@H](C(N)=O)[C@@H](C)O) | 0.0235
2 | HSQGTFTSDYSKYLDSKRAQEFVK([AEEA-AEEA-γGlu-C18 diacid])WLLNT-NH2 (N-terminus assumed; SMILES CC(C)C[C@H](NC(=O)[C@H](Cc1ccc(O)cc1)NC(=O)[C@H](CCCCN)NC(=O)[C@H](CO)NC(=O)[C@H](Cc1ccc(O)cc1)NC(=O)[C@H](CC(=O)O)NC(=O)[C@H](CO)NC(=O)[C@@H](NC(=O)[C@H](Cc1ccccc1)NC(=O)[C@@H](NC(=O)CNC(=O)[C@H](CCC(N)=O)NC(=O)[C@H](CO)NC(=O)[C@@H](N)Cc1c[nH]cn1)[C@@H](C)O)[C@@H](C)O)C(=O)N[C@@H](CC(=O)O)C(=O)N[C@@H](CO)C(=O)N[C@@H](CCCCN)C(=O)N[C@@H](CCCNC(=N)N)C(=O)N[C@@H](C)C(=O)N[C@@H](CCC(N)=O)C(=O)N[C@@H](CCC(=O)O)C(=O)N[C@@H](Cc1ccccc1)C(=O)N[C@H](C(=O)N[C@@H](CCCCNC(=O)COCCOCCNC(=O)COCCOCCNC(=O)CC[C@H](NC(=O)CCCCCCCCCCCCCCCCC(=O)O)C(=O)O)C(=O)N[C@@H](Cc1c[nH]c2ccccc12)C(=O)N[C@@H](CC(C)C)C(=O)N[C@@H](CC(C)C)C(=O)N[C@@H](CC(N)=O)C(=O)N[C@H](C(N)=O)[C@@H](C)O)C(C)C) | 0.016
3 | HSQGTFTSDYSKYLDSQRAQDFVK([AEEA-AEEA-γGlu-C18 diacid])WLVKTGP-NH2 (N-terminus assumed; SMILES CC(C)C[C@H](NC(=O)[C@H](Cc1ccc(O)cc1)NC(=O)[C@H](CCCCN)NC(=O)[C@H](CO)NC(=O)[C@H](Cc1ccc(O)cc1)NC(=O)[C@H](CC(=O)O)NC(=O)[C@H](CO)NC(=O)[C@@H](NC(=O)[C@H](Cc1ccccc1)NC(=O)[C@@H](NC(=O)CNC(=O)[C@H](CCC(N)=O)NC(=O)[C@H](CO)NC(=O)[C@@H](N)Cc1c[nH]cn1)[C@@H](C)O)[C@@H](C)O)C(=O)N[C@@H](CC(=O)O)C(=O)N[C@@H](CO)C(=O)N[C@@H](CCC(N)=O)C(=O)N[C@@H](CCCNC(=N)N)C(=O)N[C@@H](C)C(=O)N[C@@H](CCC(N)=O)C(=O)N[C@@H](CC(=O)O)C(=O)N[C@@H](Cc1ccccc1)C(=O)N[C@H](C(=O)N[C@@H](CCCCNC(=O)COCCOCCNC(=O)COCCOCCNC(=O)CC[C@H](NC(=O)CCCCCCCCCCCCCCCCC(=O)O)C(=O)O)C(=O)N[C@@H](Cc1c[nH]c2ccccc12)C(=O)N[C@@H](CC(C)C)C(=O)N[C@H](C(=O)N[C@@H](CCCCN)C(=O)N[C@H](C(=O)NCC(=O)N1CCC[C@H]1C(N)=O)[C@@H](C)O)C(C)C)C(C)C) | 0.942
4 | HSQGTFTSDYSKYLDK([AEEA-AEEA-γGlu-C18 diacid])KRAQEFVQWLLNT-NH2 (N-terminus assumed; SMILES CC(C)C[C@H](NC(=O)[C@H](Cc1ccc(O)cc1)NC(=O)[C@H](CCCCN)NC(=O)[C@H](CO)NC(=O)[C@H](Cc1ccc(O)cc1)NC(=O)[C@H](CC(=O)O)NC(=O)[C@H](CO)NC(=O)[C@@H](NC(=O)[C@H](Cc1ccccc1)NC(=O)[C@@H](NC(=O)CNC(=O)[C@H](CCC(N)=O)NC(=O)[C@H](CO)NC(=O)[C@@H](N)Cc1c[nH]cn1)[C@@H](C)O)[C@@H](C)O)C(=O)N[C@@H](CC(=O)O)C(=O)N[C@@H](CCCCNC(=O)COCCOCCNC(=O)COCCOCCNC(=O)CC[C@H](NC(=O)CCCCCCCCCCCCCCCCC(=O)O)C(=O)O)C(=O)N[C@@H](CCCCN)C(=O)N[C@@H](CCCNC(=N)N)C(=O)N[C@@H](C)C(=O)N[C@@H](CCC(N)=O)C(=O)N[C@@H](CCC(=O)O)C(=O)N[C@@H](Cc1ccccc1)C(=O)N[C@H](C(=O)N[C@@H](CCC(N)=O)C(=O)N[C@@H](Cc1c[nH]c2ccccc12)C(=O)N[C@@H](CC(C)C)C(=O)N[C@@H](CC(C)C)C(=O)N[C@@H](CC(N)=O)C(=O)N[C@H](C(N)=O)[C@@H](C)O)C(C)C) | 0.018
5 | HSQGTFTSDYSKYLDSKAAQEFVK([AEEA-AEEA-γGlu-C18 diacid])WLLNT-NH2 (N-terminus assumed; SMILES CC(C)C[C@H](NC(=O)[C@H](Cc1ccc(O)cc1)NC(=O)[C@H](CCCCN)NC(=O)[C@H](CO)NC(=O)[C@H](Cc1ccc(O)cc1)NC(=O)[C@H](CC(=O)O)NC(=O)[C@H](CO)NC(=O)[C@@H](NC(=O)[C@H](Cc1ccccc1)NC(=O)[C@@H](NC(=O)CNC(=O)[C@H](CCC(N)=O)NC(=O)[C@H](CO)NC(=O)[C@@H](N)Cc1c[nH]cn1)[C@@H](C)O)[C@@H](C)O)C(=O)N[C@@H](CC(=O)O)C(=O)N[C@@H](CO)C(=O)N[C@@H](CCCCN)C(=O)N[C@@H](C)C(=O)N[C@@H](C)C(=O)N[C@@H](CCC(N)=O)C(=O)N[C@@H](CCC(=O)O)C(=O)N[C@@H](Cc1ccccc1)C(=O)N[C@H](C(=O)N[C@@H](CCCCNC(=O)COCCOCCNC(=O)COCCOCCNC(=O)CC[C@H](NC(=O)CCCCCCCCCCCCCCCCC(=O)O)C(=O)O)C(=O)N[C@@H](Cc1c[nH]c2ccccc12)C(=O)N[C@@H](CC(C)C)C(=O)N[C@@H](CC(C)C)C(=O)N[C@@H](CC(N)=O)C(=O)N[C@H](C(N)=O)[C@@H](C)O)C(C)C) | 0.033
6 | HSQGTFTSDYSKYLDSRRAQEFVK([AEEA-AEEA-γGlu-C18 diacid])RLLNT-NH2 (N-terminus assumed; SMILES CC(C)C[C@H](NC(=O)[C@H](Cc1ccc(O)cc1)NC(=O)[C@H](CCCCN)NC(=O)[C@H](CO)NC(=O)[C@H](Cc1ccc(O)cc1)NC(=O)[C@H](CC(=O)O)NC(=O)[C@H](CO)NC(=O)[C@@H](NC(=O)[C@H](Cc1ccccc1)NC(=O)[C@@H](NC(=O)CNC(=O)[C@H](CCC(N)=O)NC(=O)[C@H](CO)NC(=O)[C@@H](N)Cc1c[nH]cn1)[C@@H](C)O)[C@@H](C)O)C(=O)N[C@@H](CC(=O)O)C(=O)N[C@@H](CO)C(=O)N[C@@H](CCCNC(=N)N)C(=O)N[C@@H](CCCNC(=N)N)C(=O)N[C@@H](C)C(=O)N[C@@H](CCC(N)=O)C(=O)N[C@@H](CCC(=O)O)C(=O)N[C@@H](Cc1ccccc1)C(=O)N[C@H](C(=O)N[C@@H](CCCCNC(=O)COCCOCCNC(=O)COCCOCCNC(=O)CC[C@H](NC(=O)CCCCCCCCCCCCCCCCC(=O)O)C(=O)O)C(=O)N[C@@H](CCCNC(=N)N)C(=O)N[C@@H](CC(C)C)C(=O)N[C@@H](CC(C)C)C(=O)N[C@@H](CC(N)=O)C(=O)N[C@H](C(N)=O)[C@@H](C)O)C(C)C) | 0.043
7 | HSQGTFTSDYSKYLDEKAAQEFVK([AEEA-AEEA-γGlu-C18 diacid])WLLNT-NH2 (N-terminus assumed; SMILES CC(C)C[C@H](NC(=O)[C@H](Cc1ccc(O)cc1)NC(=O)[C@H](CCCCN)NC(=O)[C@H](CO)NC(=O)[C@H](Cc1ccc(O)cc1)NC(=O)[C@H](CC(=O)O)NC(=O)[C@H](CO)NC(=O)[C@@H](NC(=O)[C@H](Cc1ccccc1)NC(=O)[C@@H](NC(=O)CNC(=O)[C@H](CCC(N)=O)NC(=O)[C@H](CO)NC(=O)[C@@H](N)Cc1c[nH]cn1)[C@@H](C)O)[C@@H](C)O)C(=O)N[C@@H](CC(=O)O)C(=O)N[C@@H](CCC(=O)O)C(=O)N[C@@H](CCCCN)C(=O)N[C@@H](C)C(=O)N[C@@H](C)C(=O)N[C@@H](CCC(N)=O)C(=O)N[C@@H](CCC(=O)O)C(=O)N[C@@H](Cc1ccccc1)C(=O)N[C@H](C(=O)N[C@@H](CCCCNC(=O)COCCOCCNC(=O)COCCOCCNC(=O)CC[C@H](NC(=O)CCCCCCCCCCCCCCCCC(=O)O)C(=O)O)C(=O)N[C@@H](Cc1c[nH]c2ccccc12)C(=O)N[C@@H](CC(C)C)C(=O)N[C@@H](CC(C)C)C(=O)N[C@@H](CC(N)=O)C(=O)N[C@H](C(N)=O)[C@@H](C)O)C(C)C) | 0.048
8 | H[dS]QGTFTSDYSKYLAEQRARDFVK([AEEA-AEEA-γGlu-C18 diacid])WLLNT-NH2 (N-terminus assumed; SMILES CC(C)C[C@H](NC(=O)[C@H](Cc1ccc(O)cc1)NC(=O)[C@H](CCCCN)NC(=O)[C@H](CO)NC(=O)[C@H](Cc1ccc(O)cc1)NC(=O)[C@H](CC(=O)O)NC(=O)[C@H](CO)NC(=O)[C@@H](NC(=O)[C@H](Cc1ccccc1)NC(=O)[C@@H](NC(=O)CNC(=O)[C@H](CCC(N)=O)NC(=O)[C@@H](CO)NC(=O)[C@@H](N)Cc1c[nH]cn1)[C@@H](C)O)[C@@H](C)O)C(=O)N[C@@H](C)C(=O)N[C@@H](CCC(=O)O)C(=O)N[C@@H](CCC(N)=O)C(=O)N[C@@H](CCCNC(=N)N)C(=O)N[C@@H](C)C(=O)N[C@@H](CCCNC(=N)N)C(=O)N[C@@H](CC(=O)O)C(=O)N[C@@H](Cc1ccccc1)C(=O)N[C@H](C(=O)N[C@@H](CCCCNC(=O)COCCOCCNC(=O)COCCOCCNC(=O)CC[C@H](NC(=O)CCCCCCCCCCCCCCCCC(=O)O)C(=O)O)C(=O)N[C@@H](Cc1c[nH]c2ccccc12)C(=O)N[C@@H](CC(C)C)C(=O)N[C@@H](CC(C)C)C(=O)N[C@@H](CC(N)=O)C(=O)N[C@H](C(N)=O)[C@@H](C)O)C(C)C) | 0.137
